The text below walks through data of the RNAGym collection of RNA variant scans (doi:10.7554/elife.80360).

B1: HDV Ribozyme (parent)
chain: GGCCGGCAUGGUCCCAGCCUCCUCGCUGGCGCCGGCUGGGCAACAUUCCGAGGGGACCGUCCCCUCGGUAAUGGCGAAUGGGACCCA

This data set covers variants of B1. Kind of data set: self-cleavage, relative activity (ratio to wild type); higher = more cleavage; co-transcriptional.
Regarding GGCCGGCAUGGUCCCAGCCUCCUCGGUGGCGCCGGCUGGGCAUCAUUCCGAGGGGACCGUCCCCUCGGUAAUGGCGAAUGGGACCCA [C26G A43U], the self-cleavage was found to be 0.584.
As for GGCCGGCAUGGUCCCAGCCUCCUCGGUGGCGCCGGCUGGGCACCAUUCCGAGGGGACCGUCCCCUCGGUAAUGGCGAAUGGGACCCA [C26G A43C], the self-cleavage was 0.437.
Turning to GGCCGGCAUGGUCCCAGCCUCCUCGAUGGCGCCGGCUGGGCAACAUUCCGAGGGGACCGUCCCCACGGUAAUGGCGAAUGGGACCCA [C26A U65A], the self-cleavage was found to be 0.966.
With GGCCGGCAUGGUCCCAGCCUCCUCGGUGGCGCUGGCUGGGCAACAUUCCGAGGGGACCGUCCCCUCGGUAAUGGCGAAUGGGACCCA [C26G C33U] the figure was 0.867; with GGCCGGCAUGGUCCCAGCCUCCUCGGUGGCGCCGGCUGGGCAACAUUCCGAGGGGUCCGUCCCCUCGGUAAUGGCGAAUGGGACCCA [C26G A56U], 1.23; with GGCCGGCAUGGUCCCAGCCUCCUCGGUGGCGCCGGCUGGGCAACAUUCCGAGGGGCCCGUCCCCUCGGUAAUGGCGAAUGGGACCCA [C26G A56C], 1.25.
As for GGCCGGCAUGGUCCCAGCCUCCUCGAUGGCGCCGGCUGGGCAACAUUCCGAGGGGACCGUCCCCUCGAUAAUGGCGAAUGGGACCCA [C26A G68A], the self-cleavage worked out at 1.08.
For GGCCGGCAUGGUCCCAGCCUCCUCGGUGGCGCCGGCUGGGCUACAUUCCGAGGGGACCGUCCCCUCGGUAAUGGCGAAUGGGACCCA [C26G A42U], the self-cleavage turned out to be 0.449.
Regarding GGCCGGCAUGGUCCCAGCCUCCUCGAUGGCGCCGGCUGGGCAACAUUCCGAGGGGACCGCCCCCUCGGUAAUGGCGAAUGGGACCCA [C26A U60C], the self-cleavage was 0.81.
Regarding GGCCGGCAUGGUCCCAGCCUCCUCGAUGGCGCCGGCUGGGCAACAUUCCGAGGGGACCGGCCCCUCGGUAAUGGCGAAUGGGACCCA [C26A U60G], the self-cleavage amounted to 1.2.
Regarding GGCCGGCAUGGUCCCAGCCUCCUCGGUGGCGCCGGCUGGGCAACAUUCCGAGGGGACCGUCCCCUCGGUAAUGGCGGAUGGGACCCA [C26G A77G], the self-cleavage is 0.929.
On to GGCCGGCAUGGUCCCAGCCUCCUCGGUGGCGCCGGCUGGGCAACAUUCCGAGGGGACCGUCCCCUCGGUAAUGGCGUAUGGGACCCA [C26G A77U], for which the self-cleavage was 0.447.
With GGCCGGCAUGGUCCCAGCCUCCUCGAUGGCGCCGGCUGGGCAACAUUCCGAGGGGACCGUCCCCUCGGUAAUGGCGAAUGCGACCCA [C26A G81C], the self-cleavage was 0.193.
In the case of GGCCGGCAUGGUCCCAGCCUCCUCGAUGGCGCCGGCUGGGCAACAUUCCGAGGGGACCGUCCCCUCGGUAAUGGCGAAUGUGACCCA [C26A G81U], the self-cleavage stood at 0.519.
Regarding GGCCGGCAUGGUCCCAGCCUCCUCGAAGGCGCCGGCUGGGCAACAUUCCGAGGGGACCGUCCCCUCGGUAAUGGCGAAUGGGACCCA [C26A U27A], the self-cleavage is 0.749.
With GGCCGGCAUGGUCCCAGCCUCCUCGAUGGCGCCGGCUGGGCAACAUCCCGAGGGGACCGUCCCCUCGGUAAUGGCGAAUGGGACCCA [C26A U47C], the self-cleavage was determined as 0.646.
In the case of GGCCGGCAUGGUCCCAGCCUCCUCGGUGGCGCCGGCUGGGCAACAUUCCGAGGGGACCGUCCCCUCGGUAAUGGCGAUUGGGACCCA [C26G A78U], the self-cleavage came to 0.401.
Take GGCCGGCAUGGUCCCAGCCUCCUCGGUGGCGCCGGCUGGGCAACAUUCCGAGGGGACCGUCCCCUCGGUAAUGGCGAGUGGGACCCA [C26G A78G]: the self-cleavage amounted to 0.633.
GGCCGGCAUGGUCCCAGCCUCCUCGAUGGCGCCGGCUGGGCAACAUUCCGAGGGGACCGUCCCCUCGGUAAUGACGAAUGGGACCCA [C26A G74A]: the self-cleavage stood at 0.573.
In the case of GGCCGGCAUGGUCCCAGCCUCCUCGGUGGCGCCGGGUGGGCAACAUUCCGAGGGGACCGUCCCCUCGGUAAUGGCGAAUGGGACCCA [C26G C36G], the self-cleavage worked out at 0.237.
As to GGCCGGCAUGGUCCCAGCCUCCUCGAUGGCGCCGGCUGGGCAACAUUCCGAGGGGACCGUCCCCUCGGUAAUGGCUAAUGGGACCCA [C26A G76U], the self-cleavage came to 1.05.
Take GGCCGGCAUGGUCCCAGCCUCCUCGAUGGCGCCGGCUGGGCAACAUUCCGAGGGGACCGUCCCCUCGGUAAUGGCAAAUGGGACCCA [C26A G76A]: the self-cleavage stood at 1.03.
Regarding GGCCGGCAUGGUCCCAGCCUCCUCGAUGGCGCCGGCUGGGCAACAUUCCGAGGGGACCGUCCCCUCGGUAAUGGCCAAUGGGACCCA [C26A G76C], the self-cleavage was determined as 1.08.
GGCCGGCAUGGUCCCAGCCUCCUCGAUGGCGCCGGCUGGGCAACAUUCCGAGGGGACCGUCCCCUCGGUAAAGGCGAAUGGGACCCA [C26A U72A]: the self-cleavage worked out at 0.692.
Regarding GGCCGGCAUGGUCCCAGCCUCCUCGGUGGCGCCGGCUGGGCAACAUUCCGAGGGGACGGUCCCCUCGGUAAUGGCGAAUGGGACCCA [C26G C58G], the self-cleavage was determined as 0.906.
For the variant GGCCGGCAUGGUCCCAGCCUCCUCGGUGGCGCCGGCUGGGCAACAUUCCGAGGGGACAGUCCCCUCGGUAAUGGCGAAUGGGACCCA [C26G C58A], the self-cleavage is 1.06.
With GGCCGGCAUGGUCCCAGCCUCCUCGAUGGCGCCGGCCGGGCAACAUUCCGAGGGGACCGUCCCCUCGGUAAUGGCGAAUGGGACCCA [C26A U37C] the figure was 1.13.
As for GGCCGGCAUGGUCCCAGCCUCCUCGGUGGCGGCGGCUGGGCAACAUUCCGAGGGGACCGUCCCCUCGGUAAUGGCGAAUGGGACCCA [C26G C32G], the self-cleavage turned out to be 0.203.
GGCCGGCAUGGUCCCAGCCUCCUCGGUGGCGUCGGCUGGGCAACAUUCCGAGGGGACCGUCCCCUCGGUAAUGGCGAAUGGGACCCA [C26G C32U]: the self-cleavage turned out to be 0.743.
With GGCCGGCAUGGUCCCAGCCUCCUCGGUGGCGACGGCUGGGCAACAUUCCGAGGGGACCGUCCCCUCGGUAAUGGCGAAUGGGACCCA [C26G C32A] the figure was 0.326; with GGCCGGCAUGGUCCCAGCCUCCUCGGUGGCGCCGGCUGGGAAACAUUCCGAGGGGACCGUCCCCUCGGUAAUGGCGAAUGGGACCCA [C26G C41A], 1.04; with GGCCGGCAUGGUCCCAGCCUCCUCGGUGGCGCCGGCUGGGCAACAUUUCGAGGGGACCGUCCCCUCGGUAAUGGCGAAUGGGACCCA [C26G C48U], 0.877.
